# Assay results reported in the supplement of paper PMC10567573.
# B1: HSP90AB1 (parent)
# chain: QVANSAFVERVRKRGFEVVYMTEP
# Variants of: B1
# Assay: protein stability index of a GFP-peptide fusion (GPS, HEK-293T) (PSI 1-6); higher = more stable
# Details: c terminus: a fixed tail appended
# 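Also: lentivirally expressed fusions sorted by FACS into six bins by GFP to DsRed ratio, PSI derived from sequencing read proportions per bin multiplied by bin number.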
row,Variant,protein stability index
1,QVANSAFVTRVRKRGFEVVYMTEP [E9T],1.76
2,QVANSAFVERVRKRGFEVVWMTEP [Y20W],1.96
3,QVANSAFVERVRKRGFEVRYMTEP [V19R],2.57
4,QVANSAFVERVRKNGFEVVYMTEP [R14N],2.69
5,QVANSAFVERVRLRGFEVVYMTEP [K13L],2.49
6,QVTNSAFVERVRKRGFEVVYMTEP [A3T],2.93
7,QVANSAFVEPVRKRGFEVVYMTEP [R10P],2.57
8,QVANSAFVERVRKRGFTVVYMTEP [E17T],1.87
9,QVANSAFVERVRKRGFEVVKMTEP [Y20K],2.6
10,QVAASAFVERVRKRGFEVVYMTEP [N4A],2.02
11,QVANGAFVERVRKRGFEVVYMTEP [S5G],2.02
12,QVANSAFVERVRKRGFEVVYMTKP [E23K],2.13
13,QVANSAFVERVRKRGFEVTYMTEP [V19T],2.93
14,QVANSAFKERVRKRGFEVVYMTEP [V8K],2.54
15,QVANSAFVRRVRKRGFEVVYMTEP [E9R],1.93
16,QVANSPFVERVRKRGFEVVYMTEP [A6P],2.81
17,QVANSAFVERVRKRGFEVVVMTEP [Y20V],3.05
18,QVANSDFVERVRKRGFEVVYMTEP [A6D],2.67
19,QVANSAFVERVRKRGSEVVYMTEP [F16S],3.64
20,QVANSAFVERVRKSGFEVVYMTEP [R14S],2.26
21,QVANSAFVERVRFRGFEVVYMTEP [K13F],1.58
22,QVANSAFVERVRKRGFEVVYMPEP [T22P],2.38
23,QVANSAFVERVRKRGFMVVYMTEP [E17M],2.15
24,QVANSAFIERVRKRGFEVVYMTEP [V8I],1.88

row,Variant,protein stability index
1,QVHNSAFVERVRKRGFEVVYMTEP [A3H],2.38
2,QVANSAFVERVRKMGFEVVYMTEP [R14M],1.6
3,QVANSAFVERRRKRGFEVVYMTEP [V11R],2.43
4,QVANSAFVERVRKRGFEVVYMTEF [P24F],1.63
5,QVANSAFVERVRKRGFEVVYMTEL [P24L],1.21
6,QVANSAFPERVRKRGFEVVYMTEP [V8P],2.48
7,QVANSFFVERVRKRGFEVVYMTEP [A6F],1.73
8,QVANSAFVERVRKRGFEVVNMTEP [Y20N],3.62
9,CVANSAFVERVRKRGFEVVYMTEP [Q1C],1.57
10,QVANSAFVERVRKRVFEVVYMTEP [G15V],2.19
11,QVANSYFVERVRKRGFEVVYMTEP [A6Y],1.55
12,QVAYSAFVERVRKRGFEVVYMTEP [N4Y],1.72
13,QVANSAFVERVRKRGFELVYMTEP [V18L],2.58
14,QVANSAFVERVRKRGFDVVYMTEP [E17D],2
15,QVADSAFVERVRKRGFEVVYMTEP [N4D],3.01
16,QVANSAFVERVRKRGFEVYYMTEP [V19Y],1.98
17,QVANSAFVERVRKRGFEVVIMTEP [Y20I],1.78
18,QVANSAFVERVRTRGFEVVYMTEP [K13T],2.35
19,QVANSAFVERVRKRGFFVVYMTEP [E17F],4.31
20,QDANSAFVERVRKRGFEVVYMTEP [V2D],3.15
21,QVANSAFVERVRKRGFEAVYMTEP [V18A],2.96
22,QVANSAFVERVRKRGFEVMYMTEP [V19M],1.84
23,QVANSAFVERVRKRGREVVYMTEP [F16R],2.98
24,QVANSAFVNRVRKRGFEVVYMTEP [E9N],1.9

row,Variant,protein stability index
1,QVANSAFVERVRKRGFEVVYMCEP [T22C],2.12
2,QVANSAFVERVRKRGFEVVTMTEP [Y20T],2.69
3,QVQNSAFVERVRKRGFEVVYMTEP [A3Q],2.46
4,QLANSAFVERVRKRGFEVVYMTEP [V2L],2.01
5,QVANSAFVERVRKRGFRVVYMTEP [E17R],2.19
6,QVANSAFVERVRKRTFEVVYMTEP [G15T],2.72
7,QVANSAFVERVRKRGFEVVYATEP [M21A],2.11
8,QVANRAFVERVRKRGFEVVYMTEP [S5R],1.77
9,QVANSAFVERVRKPGFEVVYMTEP [R14P],2.51
10,QVANSAFVERVRKRGFEVVYMTEE [P24E],3.13
11,QVANSAWVERVRKRGFEVVYMTEP [F7W],1.99
12,QVANSAFVERVRKRGFEVVYWTEP [M21W],3.09
13,QNANSAFVERVRKRGFEVVYMTEP [V2N],2.75
14,QVANSAFVERVRKKGFEVVYMTEP [R14K],2.54
15,QVANSAFVERVRKRGFEVVAMTEP [Y20A],2.62
16,QVANSAFVERVRKRGFEVVYMFEP [T22F],1.68
17,QVANSAFFERVRKRGFEVVYMTEP [V8F],1.8
18,QVANTAFVERVRKRGFEVVYMTEP [S5T],2.46
19,QVANSAFVETVRKRGFEVVYMTEP [R10T],2.29
20,QFANSAFVERVRKRGFEVVYMTEP [V2F],2.47
21,QVANSAFVERVNKRGFEVVYMTEP [R12N],2.63
22,QVANSAFVERVRKDGFEVVYMTEP [R14D],3.23
23,QVANSAFVERVRKRGQEVVYMTEP [F16Q],4.2
24,QVANSAFVERVRKGGFEVVYMTEP [R14G],2.09

row,Variant,protein stability index
1,QVANSAFGERVRKRGFEVVYMTEP [V8G],2.91
2,QVANSAFVERVRKRGFEVVYNTEP [M21N],2.77
3,QVANSAFVERVRKRGFCVVYMTEP [E17C],2.44
4,QVANSAFVERVRKRGFGVVYMTEP [E17G],2.88
5,QVANSAFVERQRKRGFEVVYMTEP [V11Q],3.2
6,QVANSAFVERERKRGFEVVYMTEP [V11E],3.58
7,YVANSAFVERVRKRGFEVVYMTEP [Q1Y],3.79
8,QVANSAFVERVRKRHFEVVYMTEP [G15H],1.66
9,QVANSAFVERVRKWGFEVVYMTEP [R14W],2.16
10,QVANSVFVERVRKRGFEVVYMTEP [A6V],1.57
11,QCANSAFVERVRKRGFEVVYMTEP [V2C],1.74
12,QVANSAKVERVRKRGFEVVYMTEP [F7K],3.03
13,QWANSAFVERVRKRGFEVVYMTEP [V2W],1.94
14,QIANSAFVERVRKRGFEVVYMTEP [V2I],2.52
15,QVANSAFVERVRKREFEVVYMTEP [G15E],2.56
16,QVANSAFVERVRKRGFEVVYMTPP [E23P],2.19
17,QVANSAFLERVRKRGFEVVYMTEP [V8L],1.96
18,QVANSAFVERVRKRGFEVVYMTNP [E23N],1.83
19,QVANSAFVERVRCRGFEVVYMTEP [K13C],1.61
20,QVANSAMVERVRKRGFEVVYMTEP [F7M],2.35
21,QVFNSAFVERVRKRGFEVVYMTEP [A3F],1.87
22,QVANSAFVERVRKRGFEVEYMTEP [V19E],3.43
